Assay: yeast display, Sf9 membrane polyspecificity reagent, FACS + sequencing; frameworks hold sequencing errors
Procedure, shortened: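 Genes from sorted yeast were amplified by colony PCR, read by MiSeq 2 × 250 sequencing and filtered on CDR length. These cells carried a synthetic nanobody library in Saccharomyces cerevisiae BJ5465 and were sorted by FACS into low and high (top ~1%) gates on anti-HA and streptavidin fluorescence. Polyreactivity is labelled according to the gate of origin.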

QVQLVESGGGLVQAGGSLRLSCAASGRIFQYYAMGWYRQAPGKERELVAAISRGGSTNYADSVKGRFTISRDNAKNTVYCQMNSLIPVDTAVYYCAGDEYRYYFFRPGIGYDYWGQGTQVTVSS
polyreactivity (PSR sort gate): low polyreactivity

QVQLVESGGGLVQAGGSLRLSCAASGRIFQYYVMGWYRQAPGKERELVAAITSGGGTKYADSVKGRFTISRDNAKNTVYLQMNSLKPEDTAVYYCAAAWFDQYSRYDYWGQGTQVTVSS
polyreactivity (PSR sort gate): low polyreactivity

QVQLVESGGGLVQAGGSLRLSCAASGRIFRANTMGWYRQAPGKERELVATSSKNGGRTYYADSVKGRFTISRDNAKNTVYLQMNSLKPEDTAVYYCNAEWRGWRFLEYGSYIYQSGYWGQGTQVTVSS
polyreactivity (PSR sort gate): high polyreactivity

QVQLVESGGGLVQAGGSLRLSCAASGRIFRAYAMGWYRQAPGKERELVAAITSGVSTNYADSVKGRFTISRDNAKNTVYLQMNSLKAEDTAVYYCAADIYVIYEYWGQGTQVTVSS
polyreactivity (PSR sort gate): low polyreactivity

QVQLVESGGGLVQAGGSLRLSCAASGRIFRDNAMGWYRQAPGKERELVAAITSSGGSTNYADSVKGRFTISRDNAKNTVYLQMNSLKPEDTAVYYCNTDRLGAARYDYWGQGTQVTVSS
polyreactivity (PSR sort gate): low polyreactivity

QVQLVESGGGLVQAGGSLRLSCAASGRIFRDYAMGWYRQAPGKERELVAAIRSVGNTNYADSVKGRFTISRDNAKNTVYLQMNSLKPEDTAVYYCNRQGSYFSRQAIGDFRFDYWGQGTQVTVSS
polyreactivity (PSR sort gate): low polyreactivity

QVQLVESGGGLVQAGGSLRLSCAASGRIFRDYAMGWYRQAPVKERELVAAITRSGDTTYYADSVKGRFTISRDNAKNTVYLQMNSLKPEDTAVYYCAARYVSRYYVYRGFEYWGQGTQVTVSS
polyreactivity (PSR sort gate): high polyreactivity

QVQLVESGGGLVQAGGSLRLSCAASGRIFRFYAMGWSRQAPGKEREMVAVISTGGRTNYADSVKGRFTISRDNGKNTVYLQMNSLKPVDSAVYYCAAEYTNIGRYDGWNYNYWGQGTQVTVSS
polyreactivity (PSR sort gate): high polyreactivity

QVQLVESGGGLVQAGGSLRLSCAASGRIFRGNAMGWYRQAPGKERELVAASTSSGDSTFYADSVKGRFTISRDNAKNTVYLQMNSLKPEDTAVYYCAANVRYQRTSGYYYWGQGTQVTVSS
polyreactivity (PSR sort gate): high polyreactivity

QVQLVESGGGLVQAGGSLRLSCAASGRIFRGNAMGWYRQPPGKERELGATITRSGARTYYADSVKGRFTISRDNAKNTVYLQMNSLKPEDTAVYYCAARRVRSYAYDYWGQGTQVTVSS
polyreactivity (PSR sort gate): high polyreactivity

QVQLVESGGGLVQAGGSLRLSCAASGRIFRGNTMGWYRQAPGKERELVAAITRGGSTSYADSVKGRFTISRDNAKNTVYLQMNSLKPEDTAVFYCATRTHGEGTRRDSWGQGTQVTVSS
polyreactivity (PSR sort gate): low polyreactivity

QVQLVESGGGLVQAGGSLRLSCAASGRIFRGYAMGWYIQAPGKEREFVADITRSGGSTYYADSVKGRFTISRDNAKNTVYLQMNSLKPEDTAVYYCAREWYQYSPYHRFDYWGQGTQVTVSS
polyreactivity (PSR sort gate): high polyreactivity

QVQLVESGGGLVQAGGSLRLSCAASGRIFRGYAMGWYRQAPGKERELVAAIDTDTGITYYADSVKGRFTISRDNAKNTVYLQMNSLKPEDTAVYYCAAETYYAVSTGYDFDYWGQGTQVTVSS
polyreactivity (PSR sort gate): high polyreactivity

QVQLVESGGGLVQAGGSLRLSCAASGRIFRGYAMGWYRQAPGKERELVAAISRSGGSTYYADSVKGRFTISRDNAKNTVYLQMNSLKPEDTAVYYCAAVPYYVWYYYPIGGYWGQGTQVTVSS
polyreactivity (PSR sort gate): high polyreactivity

QVQLVESGGGLVQAGGSLRLSCAASGRIFRGYAMGWYRQAPGKERELVADISSGASTNYADSVKGRFTISRDNAKNTVYLQMNSLKPEDTAVYYCAAQHSVLAYFEYDYWGQGTQVTVSS
polyreactivity (PSR sort gate): low polyreactivity

QVQLVESGGGLVQAGGSLRLSCAASGRIFRGYAMGWYRQAPGKERELVATITARGGNTYYADSVKGRFTISRDNAKNTVYLQMNSLKPEETAVYYCAATFYRRYVDLGYWGQGTQVTVSS
polyreactivity (PSR sort gate): high polyreactivity

QVQLVESGGGLVQAGGSLRLSCAASGRIFRGYTMGWYRQAPGKEREFVAAITANGGRTYYADSVKGRFTISRDTAKNTVYLKMNRLKPEDTAVYYCNARTYTYRGSFDYWVQGTQVTVSS
polyreactivity (PSR sort gate): high polyreactivity

QVQLVESGGGLVQAGGSLRLSCAASGRIFRHNTMGWYRQAPGKERELDAGITASGGDTYYADSVKGRFTISRDNAKNTVYLQMNSLKPEDTAVYYCAKRGQSYTYRRYDYWGQGTQVTVSS
polyreactivity (PSR sort gate): low polyreactivity

QVQLVESGGGLVQAGGSLRLSCAASGRIFRINAMGWYRQAPGKERELVASITSRAGSTYYADSVKGRFTISRDNAKNTVYLQMNSLKPEDTAVYYCAAASRRGYYYWGQGTQVTVSS
polyreactivity (PSR sort gate): high polyreactivity

QVQLVESGGGLVQAGGSLRLSCAASGRIFRINDMGWYIQAPGKERELVAAITWSGGSTYYADSVKGRFTISRDNAKNPVYLPMNSLKPEDTAGYYCAADQAYFWGYYYWGQGTQVTVSS
polyreactivity (PSR sort gate): low polyreactivity

QVQLVESGGGLVQAGGSLRLSCAASGRIFRKYAMGWYRQAPGKERELVAAINWSGGSTYYADSVKGRFTISRDNAKNTVYLQMNSLKPEDTAVYYCAAYVRRVGYYYWGQGTQVTVSS
polyreactivity (PSR sort gate): high polyreactivity

QVQLVESGGGLVQAGGSLRLSCAASGRIFRKYTMGWYRQAPGKERELVAAITGTGGSTYYADSVKGRFTISRDNAKNTVYLQMNSLKPEDTAVYYCAAVARFRYSDMYYWGQGTQVTVSS
polyreactivity (PSR sort gate): high polyreactivity

QVQLVESGGGLVQAGGSLRLSCAASGRIFRLYAMGWYRQAPGKERELVASISKSGGSTYYADSVKGRFTISRDNAKNTVYLQMNSLKPADSAVYYCAADYRTHGGYEGTFDYWGQGTQVTVSS
polyreactivity (PSR sort gate): low polyreactivity

QVQLVESGGGLVQAGGSLRLSCAASGRIFRNNAMGGDRQAPGKERELVASITSSGGSTYYADSVKGRFTISRDNAKNTVYLQMNSLKPEDTAVYYCAAYTRSGYGYKLYYYWGQGTQVNVSS
polyreactivity (PSR sort gate): high polyreactivity

QVQLVESGGGLVQAGGSLRLSCAASGRIFRNYAMGWYRQAPGKERELVPAITRGGSTYYAVSVKGRFSISRDNAKNTVYLQMNSLKPEDNAVYYCNKAWPYSHPVQYHRSRSYDYWGQGTQVTVSS
polyreactivity (PSR sort gate): high polyreactivity

QVQLVESGGGLVQAGGSLRLSCAASGRIFRPNTMGWYRQAPGKERELVAAISRSGGSTYYADSVKGRFTISRDNAKNTVYLQMNSLKPEDTAVDYCAKRYGGIVGVGANKYEYWGQGTQVTVAS
polyreactivity (PSR sort gate): high polyreactivity

QVQLVESGGGLVQAGGSLRLSCAASGRIFRPNTMGWYRQAPGKERELVASISLSAGSTYYADSVKGRFTISRDNAKNTVFLQMNSLKPEDTAVYYCNATYLSWYRYKYNYWGQGTQVTVSS
polyreactivity (PSR sort gate): low polyreactivity

QVQLVESGGGLVQAGGSLRLSCAASGRIFRPYAMGWYRQAPGKERELVAAITRGGSTKYADSVKGRFTISRDNAKNTVYLQMNSLKPEDTAVYYCAARGWSTGTSYRSAWWDYYYWGQGTQVTVSS
polyreactivity (PSR sort gate): high polyreactivity

QVQLVESGGGLVQAGGSLRLSCAASGRIFRQNAMGWYRQAPGKERELVAAISRGGGSTYYADSVKGRFTISRDNAKNTVYLQMNSLKPDDTAVYYCAAFQAHQTAFDYWGQGTQVTVSS
polyreactivity (PSR sort gate): high polyreactivity

QVQLVESGGGLVQAGGSLRLSCAASGRIFRRNTMGWYRQAPGKEREVVAAITSSGGSTYADSVKGRFTISRDNAKNTVYLQMNSLKPEDTAVYYCATYVAYHRGYRTYDHWGQGTQVTVSS
polyreactivity (PSR sort gate): low polyreactivity

QVQLVESGGGLVQAGGSLRLSCAASGRIFRRYALGLYRQAPGKEREFVAAISYGGGSTYYADSVKGRFTISRDNAKNTVYLQMNRLKPEDTAVYFCNADVPKSLLLYYPWGYGYWGQGTQVTVSS
polyreactivity (PSR sort gate): low polyreactivity

From the nanobody polyreactivity screen of Harvey et al. (2022)
